Assay results as given in the nanobody polyreactivity screen of Harvey et al. (2022).

Assay: yeast display, Sf9 membrane polyspecificity reagent, FACS + sequencing; frameworks hold sequencing errors
Method in brief: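 Galactose-induced (36–48 hours) yeast carrying a synthetic nanobody display library were exposed to 10% biotinylated, detergent-solubilized Sf9 membrane reagent at 4 °C for 1 hour. FACS followed streptavidin microbead enrichment, using low and high (top ~1%) gates for expression (anti-HA) and reagent binding (streptavidin). Colony PCR, MiSeq 2 × 250 sequencing and CDR-length filtering followed. Labels for polyreactivity reflect the gate of origin.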

Row | Sequence | polyreactivity (PSR sort gate)
1 | QVQLVESGGGLVQAGGSLRLSCAASGITFYDYPMGWYRQAPGKERELVAAITSSGGRTYYADSVKGRFTISRDNAKNTVYLQMNSLKPEDTAVYYCAASTYPHEYDYWGQGTQVTVSS | low polyreactivity
2 | QVQLVESGGGLVQAGGSLRLICAASGITFRLNVMGWDRQAPGKERELVARISRAGSTKYADSVKGRFTISRDNAKNTVYLQMNCLKPEDTAVYYCNRYYRRATKVGYWGQGTQVTVSS | high polyreactivity
3 | QVQLVESGGGLVQAGGSLRLSCAASGTFSYYAMGWYRQAPGKERELVATISWSGDSTYYADSVKGRFTISRDNAKNTVYLQMNSLNPEDTAVYYCNADHFQWGAGYDYWGQGTQVTVSS | low polyreactivity
4 | QVQLVESGGGLVQAGGSLRLSCAASGRIFSYYAMGWYRQAPGKERELVATINSGGSTNYADSVKRRFTISRDNAKNTVYLQMNSLKPEDTAVYYCAASPVWWSDYWGQGTQVTVSS | low polyreactivity
5 | QVQLVESGGGLVQAGGSLRLSCAASGSIFGNYAMGWYRQAPGKERELVAAITSSGGTYYADSVKGRFTISRDNAKNTVYLQMNSLKPEDTAVYYCAARYYSYRHQSVKYGYWGQGTQVTVSS | high polyreactivity
6 | QVQLVESGGGLVQAGGSLRLSCAASGRTFSYNVMGWYRQAPGKERELVASTYYADSVKGRFTISRDIAKNTVYLQMNSVKPEDTAVYYCNRDKPGLFFTSYNYSSSYDYWGQGTLVTVSS | low polyreactivity
7 | QLQLVESGGGLVQAGGRLRLSCAASARILSSYAMGSYRQAPGKERELVARISYSGGRTYYADSVKGRFTISRDNAKNTVYLQMNSLKPEDTAVYYCAAVSRVHFSYSYDYWGQGTEVTVSS | high polyreactivity
8 | QVQLVESGGGLVQAGGSLRLSCAASGRTFSVYAMGWYRQAPGKERELVAVISYRDGTTYYADSVKGRFTISRDNAKNTVYLQMNSLKPEDTAVYYCAADFFSDFDWGQGTQVTVSS | low polyreactivity
9 | QVQLVESGGGLVHAGGSLRLSCAASGSIFYHYAMGWYRQAPGKERELVAAITWSGGSTYYADSVKGRFTISRDNAKNTVYLQMNSLKPEDTAVYYCATSSNVEFGYWGQGTQVTVSS | low polyreactivity
10 | QVQLVESGGGLVQAGGSLRLSCAASGFILAYYEMGWYRQAPGKERELVAAISIGSSTDYADSVKGRFTISRDNAKNTVYLQMNSLKPEDTAVYYCAARDYYYEYDYWGQGTQVTVSS | low polyreactivity
11 | QVQLVESGGGLVQAGGSLRLSCAGSGRSFVYNAMGWYRQAPGQDRELVAAITSGGRTYYADSVKGRFTISRDNAKNTVYLQINSLKPEDTAVYDCAKRFWFNTYAAHPAGFDYWGQGTQVTVSS | low polyreactivity
12 | QVQLVESGGGLVQAGGSLRLSCAASGFTFQYYPMGWYRQAPGKERELVAAISWSGGSTNYADSVKGRFTISRDNAKNTVYLQMNSLKPEDTAVYYCNAVHYYVEYDYWGQGTQVTVSS | high polyreactivity
13 | QVQLVESGGGLVQAGGSLRLSCAASGITFPGYAMGWYRQAPGKERELVAAISIGGITYYADSVKGRFTISRDNAKNTVYLQMNSLKPEDTAVYYCAKDVTDPSSRSDPSGDDYWGQGTQVTVSS | low polyreactivity
14 | QVHLVESGGGLVHAGGSLRLSCAASGSIFPYYAMGWYRQAPGKETELVAAISRSGGSTYYADSVKGRFTISRDYAKNTVYLQMNSLKPDDTAVYYCAADYARYVRKTRYGSWGKGTQVTVSS | high polyreactivity
15 | QVQLVESGGGLVQAGGSLRLSCAASGRTIGVYALGWSRQAPGKERELVAALTTSGDSTYYADSVKGRFTISRDNAKNTDYLQMNSLKPEDTAVYYCAARSYRKPRHVSVTYYYWGQGTQVTVSS | low polyreactivity
16 | QVQLVESGGGLVQAGGSLRLSCAASGIIFNYNAMGWYRQAPGKERELVASISSSGGNTYYADSVKGRFTISRDNAKNTVYLQMNSLKPEDTAVYYCAARYVGWRLKRWYEYWGQGTQVTVSS | high polyreactivity
17 | KVQLVESGGGLVQAGGSLRLSCAASGRIFYVNTMGWYRQAPGKERELVATITWGGDSTYYADSVKGRFTISRDNAKNTVYLQMNSLKPEDTAVYYCAADHHDIRLNTRRYDYWGQGTQVTVSS | low polyreactivity
18 | QVQLVESGGGLVQAGGSLRLSCAASGRTFINYAMGWYRQAPGKERELVAAITTGGRTNYADSVKGRFTISRDNAKNTVYLQMNILKPEDTAVYYCAADRYYWGRYTLNYWGQGTLVTVSS | low polyreactivity
19 | QVQLVESGGGLVQAGGSLRLSCAASGFTFVSYTMGWYRQAPGKERELVAVITKRGGSTYYADSVKGRFTISRDNAKNTVYLQLNCLKPEDTAVYYCNAVQAYKSPSLPLAGGNYWGQGTQVTVSS | high polyreactivity
20 | QVQLVESGGGLVQAGGSLRLSCAASGRTFIAYAMGWYRQAPGKERELVAAITSSGGSTYYADSVKGRFTISRDNAKNTVYLQMNSLKPEDTAVYYCATDIYESPYFYYSYYYWGQGTQVTVSS | low polyreactivity
21 | QLHLVESGGGLVQAGGSLRLSCAASGRIFGVYAMGWYRQAPGKERELVASITWRGGSTYYADSVKGRFTISRDNAKNTVYLQMNSLKPEDTAVYYCAAAYWYAYEYWGQGTQVTVSS | high polyreactivity

Row | Sequence | polyreactivity (PSR sort gate)
22 | QVHLVESGGGLVQAGGSLRLRCAASGIIFKSYAMGWYRQAPGKERELVAAITKRGGSTYYADSVKGRFTISRDNAKNTVYLQMNSLKPEDTAVYDCAADDGVGNTDDYWGQGTQVTVSS | high polyreactivity
23 | QVQLVESGGGLVQAGGSLRLSCAASGSIFTFYAMGWYRQAPGKERELVAAISSSGTSTYYADSVQGRFTISRDNAKNTVYLQMNSLKPEDTAVYYCNVPMPPAKAEYGYWGQGTQVTVSS | high polyreactivity
24 | QVQLVESGGGLVQAGGSLRLSCAASGSIFVTNAMGWYRPAPGKERELVAAIRWSGDSTYYADSVKGRFTISRDNAKNTVFLQMNSLKPEDTAVYYCAAESFRYIRLNYKYGDYYWGQGTQVTVSS | high polyreactivity
25 | QVQLVESGGGLVQAGGSLRIRCAASGRIFRTNAMGWYRQAPGKERELVAAISDSGADTSYADSVKGRFSISRDNAKNTDYLQMNSLKPEDTAVDYCNRGRVYYRYLKDYDYWGQGTQVTVSS | low polyreactivity
26 | QVQLVESGGGLVQAGGSLRLSCAASGSTFFGNAMGWYRQAPGKERELVAAITSGGSTNYADSVKGRFTFSRDNAKNTVSLQMNSLKPEDTAVYDCAKPSRWGWTGFYAYDYWGQGTQVTVSS | low polyreactivity
27 | QVQLVESGGGLVQAGGSLRLSCAASGRTFRFYAMGWYRQAPGKEREFVASISRGGITYYADSVKGRFTISRDNAKNTVYLQMNSLKPEDTAVYYCAAGYPVLLERYSSFGGYYYWGHGTQVTVSS | high polyreactivity
28 | QVQLVESGGGLVQAGGSLRLSCAASGRTFYYYAMGWYRQAPGKERELVARISRGGSTNYADSVKGRFTISRDNAKNTVYLQMNSLKPEDTAVYYCAKTISYTGRFWGYDYWGQGTQVTVSS | high polyreactivity
29 | QVQLVESGGGLVQAGGSLRLSCAASGFTFSYYAMGWSRPEPGKERELVAAISSSASRTYYAESVKGRFTISRDNAKNTVYFQMNSLKPEDTAVYYCAARYSESRTRHLDYWGQGTQVTVSS | high polyreactivity
30 | RVQLVESGGGLVQAGGSLRLSCAASGRIFAQYPMGWYRKAPRKERELLAAITTTGRTYYADSVKGRFTISRDNAKNTVYLQMNSLKPEDTAVSYCAVGYHAPNVSTSDPRYDYWGQGTQVTVSS | low polyreactivity
31 | QVQLVESGVGLVQAGGSLRLSCAATGFTFYWYTMGWYIQAPGKERELVAAISASGGRTYYADSVKGRFTISRDNAKNTVYLQMNSLKPEDTAVYYCAARFRTWGNREAGYYWGQGTQVTVSS | high polyreactivity
32 | QVQLVESGGGLVHAGGSLRLSCASSGSIFYYYAMGWYRQAPGKERELVASITSSGGTTSYADSVKGRYTISRDNAKNTVYLLMNSLKPEDTAVYYCNAQVYRYRIGYDYWGQCTQVTVSS | low polyreactivity
33 | QVQLVESGGGLVQAGGSLRLSCAASGSTLVRYAMGWYRQAPGKERELVAAISGSGGSTFYADSVKGRFTISRDNAKNSVYLQMNSLKPEDTAVYYCAARYYWYGRAGNKHASYYYWGQGTQVTVSS | high polyreactivity
34 | QVQLVESGGGLVQAGGSLRLSCGASGSTFGTYAMGWYRQAPGKERELVAAISWSGGSTYYADSVKGRFTISRDNAKNTVYLQMNSLNPEDTAVYWGQGTQVTVSS | low polyreactivity
35 | HVQLVESGGGLVQAGGSLRLSCAASGSIFWRYAMGWYRQAPGKERELVAAITWSGGTSYADSVKGRFTISRDNAKNTVYLQMNSLKPEDTAVYYCNADGLSYYLYDYWGQGTQVTVSS | low polyreactivity
36 | QVQLVQSGGGLVQAAGSLRLICAASGRTFPANAMGWYRQAPGKERELVAGITKSGGNTYYADSVKGRFTISRDNAKNTVYLQMNSLKPEDTAVYYCATRYYPLVNYLGYDYWGQGTQVTVSS | low polyreactivity
37 | QVQLVESGGGLVQAGGSLRISCAASGSTFYYYAMGWYRQAPGKERELVAAISTTGGSTYYADSVKGRFTISRDNAKNTVYLQMNSLKPEDTAVYYCNAVTRYSRVRAVSSRDSEYWGQGTQVTVSS | high polyreactivity
38 | QVQLVESGGGLVQAGGSLRLSCAASGSTFGYYAMGWYRQAPGKERELVAAISVRGGRTYYADSVKGRFTISRDNAKNTVYVQMKSLKPEDTAVYYCATLLPGLGRYGYDYWGQGTQVTVSS | high polyreactivity
39 | QVQLVESGGGLVQAGGSLRLSCAASGSIFIYYAMGWYRQAPGKEREFVAAISTSTADTYYADSVKGRFTISRDNAKNTVYLQMNSLKPEDTAVYYCAAECRPKWYYWAEGYYWGQGTQVTVSS | high polyreactivity
40 | QVQLVESGGGLVQAGGSLRLICAASGYTFSDYAMGLYRQAPGKERELVAVISQSGGSTYYADSVKGRFTISRDNAKNTVYLQMNSLKPEDTAVYDCNVYPSRRRAVGESERYYWGQGTQVTVSS | high polyreactivity
41 | QVQLVESGGGLVQAGGSLRLSCAHSGFIFCNYAMGWYRHAPGKERELVAAITSGGTSTYYADSVKGRFTISRDNAKNTVYLQMNCLKPEDTAVYFCAAVTGLFSYWDYSAMYYWGQGTQVTVSS | high polyreactivity
